One molecule from patent publication US10138280B2, “Polypeptides targeting glycosylated MUC2 proteins, methods of synthesis, their nucleic acids and uses thereof” (INSTITUT PASTEUR, priority 2011, dated 2018) can be followed below.

Experiment [1] relates to guinea pig colonic mucus. In words: Mucus staining on fixed tissues, guinea pig colon. Conditions: fixed tissue, 1 μg/mL. As to the method: FIGS. 11A-11C. Mucus staining using Cy5-MUB70 on fixed tissues. (FIG. 11A) Guinea pig colon, (FIG. 11B) rabbit ileum and (FIG. 11C) mouse colon were fixed in PFA 4%. Immunofluorescent staining was performed using Cy5-MUB70 (1 μg/mL) (blue). Actin is stained in red (Phall.-RRX), Muc2 is stained in green (α-Muc2). Observations were performed using a confocal microscope. Bar is 50 μm.
Ex vivo human colon samples were obtained from Dr. E. Labruyère (Institut Pasteur) and tissue processing was performed as described previously and stored in serum free RMPI media (surgical procedure is described herein). Human mucinous carcinoma formamide fixed samples were obtained from Dr. T. Lazure (Hôpitaux Universitaires Paris-Sud, Kremlin-Bicêtre) and Pr. I. Sobhani (Hôpital Henri Mondor, Créteil). Rabbit colon and ileum samples were collected on naïve New Zealand white rabbits weighting 2.5-3 kg and fixed in PFA 3%. Same procedure was applied on intestine samples collected on guinea pigs (Charles River) and C57/B6 mice (Janvier).
Following PFA 4% or Carnoy fixation, as indicated, samples were washed in PBS, incubated at 4° C. in PBS containing 12% sucrose for 90 min, then in PBS with 18% sucrose overnight, and frozen in OCT (Sakura) on dry ice. 7 μm sections were obtained using a cryostat CM-3050 (Leica). […]

For experiment [2], the system named is human neutrophil (PMN) granules. In words: Human neutrophil (PMN) granule staining. It is filed as cell-based. As to the method: FIG. 14. Staining of individual neutrophiles (white blood cells) in human blood sample. Cy5-MUB70 was incubated on ethanol 100% fixed blood sample. […] (Details are provided on the Figure). […] In particular, granules staining is achieved.
FIG. 15. Staining of individual neutrophiles (white blood cells) purified from fresh human blood sample. Cy5-MUB70 was incubated on PFA 4% fixed neutrophiles (PFA treatment for 15 min, wash 3 times in PBS). Signal was detected as dots distributed in neutrophile cytoplasms. (Staining with Dapi 1:1000 and EB1C5 1:1000 in PBS+10% FCS+0.1% Saponin). […] In particular, granules staining is achieved.
FIG. 29. Identification of Muc2 in neutrophile granules using MUB70-Cy5. Human neutrophil (PMN) granule staining using Cy5-MUB70. PMN were purified from healthy donor blood samples and fixed in the presence of 4% PFA. Fluorescent staining of human colonic mucus was performed by the addition of 1 μg/mL of Cy5-MUB70 (Red) with Dapi (1:100) (Blue) and 1:200 anti-Muc2 antibody (Green). Image acquisition was performed using a fluorescent confocal microscope (see Methods).
FIG. 31. Identification of Muc2 in neutrophile granules. Human neutrophil (PMN) granule staining using Cy5-MUB40-1, Cy5-MUB40-2, Cy5-MUB40-3, Cy5-MUB40-4 peptides. Schematic description of the Cy5-conjugated peptides. PMN were purified from healthy donor blood samples and fixed in the presence of 4% PFA. Fluorescent staining of human colonic mucus was performed by the addition of 1 μg/mL of the Cy5-conjugated peptides (Green) with Dapi (1:100) (Blue) and Phalloidin-RRX (1:1000) (Red). Image acquisition was performed using a fluorescent confocal microscope (see Methods).
The invention has also proven to be useful for the monitoring of neutrophile degranulation events, in particular by using MUB70 and/or MUB40 polypeptides or polypeptides sharing identity with MUB70 and/or MUB40 polypeptides, or fragments thereof, for labelling neutrophile granule(s).

Experiment [3] deals with T1, human colonic mucus (Muc2) (Homo sapiens, UniProt Q02817).
T1 construct: Segments of human colon (ascending, descending and sigmoid colon) were obtained from fully informed patients undergoing surgery; from tissue; host or cells: healthy human colon segments (live explants, mucus collected from them, Carnoy- or formol-fixed sections)
Briefly: Immunofluorescent staining of human mucus and fixed human colon samples. Conditions: human colon mucus from ex vivo samples and fixed purified human mucus. From the text: FIGS. 4A-4B. Cy5-MUB70 is specifically binding to the glycosylated moiety of Muc2 secreted in the colon mucus layer. (FIG. 4A) Immunodetection of Muc2, Muc5ac, Muc5b and Muc6 (dotblot analysis) on human mucus extracts eluted after a pulldown assay performed with biot-MUB70 on avidin conjugated beads (see Methods). Biotin is used as a negative control. Immunodetection of Muc2 (dotblot analysis) on deglycosylated mucus extracts eluted after a pulldown assay performed with biot-MUB70 on avidin conjugated beads. Non-deglycosylated mucus extract is used as a positive control. (FIG. 4B) Co-localization of Muc2 (green) and Cy5-MUB (blue) observed on fixed (Carnoy) human colon samples. Actin is stained in red (Phall.RRX). Observations are performed using a confocal microscope. Bars is 20 μm.
FIGS. 9A-9B. (FIG. 9A) Co-localization of Muc2 (green) and Cy5-MUB (blue) performed by immunofluorescent detection on human mucus extract collected on ex vivo tissues using an epifluorescent microscope. Bar is 50 μm. […]
For immunofluorescence assay mouse α-MUC2 pAbs (Santa Cruz sc-15334) was diluted 1:1000 and FITC-conjugated rabbit anti-mouse was diluted 1:2000. Host cells were detected with DAPI (nuclei, […]) or using Phalloidin-Rhodamine red X (RRX)-conjugated donkey anti-mouse antibodies (Jackson Immunoresearch Antibodies) as an actin marker (stained red); both were used at a final dilution of 1:1000. […]

B1: Cy5-MUB70: Cy5-labelled MUB70 polypeptide, labelled via Cy5 maleimide on N-terminal cysteine (conjugate)
peptide: CVHVQYIDGETDQMLRQDDLDGYTDETIPYSTAEGIKKFEGDGYELFKDNFPAGEKFDNDDTNDQFYTVIF
In the case of B1, the colonic mucus staining entry in experiment [1] is recorded as “confirmed”. In addition, the PMN granule staining result in experiment [2] (PMN purified from human blood, fixed in 4% PFA, 1 μg/mL) was “binding specifically a neutrophile granule component”. Further, the “neutrophile staining in human blood sample” value in experiment [2] (ethanol 100% fixed blood sample) is given as “Signal was detected as diffused in neutrophile cytoplasm”. The “colocalization with Muc2” value in experiment [3] was “colocalization detection of Muc2 and Cy5-MUB70”.
